Data taken from patent US20240002522A1 (INSERM INSTITUT NATIONAL DE LA SANTE ET DE LA RECHERCHE …, published 2024).
Positions count from the first letter of the chain named.

T1: human CD25 (human, UniProt P01589 22-272)
T1 construct: In the functional assays it was native on T cells or SUDHL-1 cells; also called huCD25; hCD25
T1 sequence: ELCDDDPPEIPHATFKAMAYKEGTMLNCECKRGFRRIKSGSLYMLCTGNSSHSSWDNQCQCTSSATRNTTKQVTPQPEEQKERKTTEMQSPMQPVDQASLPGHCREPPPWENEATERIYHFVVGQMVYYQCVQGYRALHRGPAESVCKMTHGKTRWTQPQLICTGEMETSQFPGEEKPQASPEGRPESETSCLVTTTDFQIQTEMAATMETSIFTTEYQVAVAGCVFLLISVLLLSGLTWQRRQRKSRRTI

B1: B01 (antibody, V domains shown)
VH: QVQLVESGGGVVQPGRSLRLSCAASGFTFSNHAMAWVRQAPGKGLEWVAVISYDGSNKYYADSVKGRFTISRDNAKSTLYLQMNSLRAEDTAVYYCTTGLNSGYDWGQGTLVTVSS
VL: DIQMTQSPSSLSASVGDRVTITCRASQNISSFLNWYQQKPGEAPRRLIYGTNSLQSGVPSRFSGSGSGTDYTLTISSLQPEDFATYYCQQYNSWPWTFGQGTKLEIK
notes: detected with anti-human IgG (Fc specific); also called anti-CD25 antibody B01
B2: H07 (antibody, V domains shown)
VH: B1 VH with S77N, L100W
VL: B1 VL with N28S, I29V, S30N, E42K, N52S, N92T
notes: It was detected with anti-human IgG (Fc specific), and a human IgG1 isotype served as control; also called anti-CD25 antibody H07
B3: G09 (antibody, V domains shown)
VH: B1 VH with A61R, K76Q, S77N
VL: B1 VL with I29V
notes: detected with anti-human IgG (Fc specific); also called anti-CD25 antibody G09
B4: H02 (antibody, V domains shown)
VH: B1 VH with A61R, A75S, K76Q
VL: B1 VL with I29V
notes: detected with anti-human IgG (Fc specific); also called anti-CD25 antibody H02
B5: H08 (antibody, V domains shown)
VH: B1 VH with A75S, S77N
VL: B1 VL with N28S, I29V, F32Y, E42K, N92T
notes: detected with anti-human IgG (Fc specific); also called anti-CD25 antibody H08
B6: H01 (antibody, V domains shown)
VH: B1 VH with A75S, K76Q, S77N
VL: B1 VL with I29V, E42K, N52S, N92T
notes: detected with anti-human IgG (Fc specific); also called anti-CD25 antibody H01

Biological target: T1, human CD25
Experiment: flow cytometry on HEK293 cells transiently transfected with huCD25; 3-fold dilutions from 500 nM; detection with anti-human IgG (Fc specific) FITC

| binding result | Binder |
| --- | --- |
| binds | B1 |
| binds | B2 |
| binds | B3 |
| binds | B4 |
| binds | B5 |
| binds | B6 |
